What all share (assay): SPR
(In general: In SPR one partner is held on a chip, and binding of the other changes the refractive index at the surface.)

Experiment [1] concerns the target SARS-CoV-2 Spike RBD, XBB.1.5 strain (SARS-CoV-2, Omicron XBB.1.5, strain).
For experiment [2], the target named is T1, SARS-CoV-2 Spike RBD, original (Wuhan) strain (SARS-CoV-2, original Wuhan strain, UniProt P0DTC2).
Experiment [3] has as its target T1, SARS-CoV-2 Spike RBD, original (Wuhan) …. The source holds these as a separate data set.

Consider 13 molecules from publication PMC12164381 (mAbs, 2025).

Where two headings read alike, the source gives them in different places.

B1: Inverse folding design from the DXP-604 starting point (Table 5, design row 1, the 5th table, row 4) (antibody, V domains shown)
VH: EVQLVESGGGLIQPGGSLRLSCAASGIIVSRNYMTWVRQAPGKGLEWVSVIYSGGSTFYADSVKGRFTISRDNSKNTLYLQMSSLRAEDTAVYYCARDLGPYGMDVWGQGTTVTVSS
VL: DIQLTQSPSFLSASVGDRVTITCRASQGISSDLAWYQQKPGKAPNLLIYAASTLQSGVPSRFSGSGSGTEFTLTISSLQPEDFATYYCQQLMDTLYTFGQGTKLEIK
As for B1, the figures for the pKD in experiment [1] and in experiment [2] were 6.33 -log10(KD) and 10 -log10(KD), respectively.

B2: Inverse folding design from the DXP-604 starting point (Table 5, design row 5, the 5th table, row 8) (antibody, V domains shown)
VH: EVQLVESGGGLIQPGGSLRLSCAASGIIVSRNYMTWVRQAPGKGLEWVSVIYPGGSTFYADSVKGRFTISRDNSKNTLYLQMSSLRAEDTAVYYCARDLGVYGMDVWGQGTTVTVSS
VL: DIQLTQSPSFLSASVGDRVTITCRASQGISSDLAWYQQKPGKAPNLLIYAASTLQSGVPSRFSGSGSGTEFTLTISSLQPEDFATYYCQQLNDYLYTFGQGTKLEIK
In the case of B2, the pKD was 6.33 -log10(KD) in experiment [1] and 10.8 -log10(KD) in experiment [2].

B3: Inverse folding design from the DXP-604 starting point (Table 5, design row 2, the 5th table, row 5) (antibody, V domains shown)
VH: EVQLVESGGGLIQPGGSLRLSCAASGIIVSRNYMTWVRQAPGKGLEWVSVIYSGGTTFYADSVKGRFTISRDNSKNTLYLQMSSLRAEDTAVYYCARDLAVYGMDVWGQGTTVTVSS
VL: DIQLTQSPSFLSASVGDRVTITCRASQGIGSDLAWYQQKPGKAPNLLIYAASTLQSGVPSRFSGSGSGTEFTLTISSLQPEDFATYYCQQLNSDLYTFGQGTKLEIK
For B3, the pKD is 6.15 -log10(KD) in experiment [1] and 10.2 -log10(KD) in experiment [2].

B4: Inverse folding design from the DXP-604 starting point (Table 5, design row 3, the 5th table, row 6) (antibody, V domains shown)
VH: EVQLVESGGGLIQPGGSLRLSCAASGIIVSRNYMTWVRQAPGKGLEWVSVIYSGGSTFYADSVKGRFTISRDNSKNTLYLQMSSLRAEDTAVYYCARDLGPYGMDVWGQGTTVTVSS
VL: DIQLTQSPSFLSASVGDRVTITCRASQGISSDLAWYQQKPGKAPNLLIYAASTLQSGVPSRFSGSGSGTEFTLTISSLQPEDFATYYCQQLNDLLYTFGQGTKLEIK
Turning to B4, the pKD is 6.01 -log10(KD) in experiment [1] and 9.38 -log10(KD) in experiment [2].

B5: Inverse folding design from the DXP-604 starting point (Table 5, design row 4, the 5th table, row 7) (antibody, V domains shown)
VH: EVQLVESGGGLIQPGGSLRLSCAASGIIVSRNYMTWVRQAPGKGLEWVSVIYSGGTTFYADSVKGRFTISRDNSKNTLYLQMSSLRAEDTAVYYCARDLGPYGMDVWGQGTTVTVSS
VL: DIQLTQSPSFLSASVGDRVTITCRASQGIGSDLAWYQQKPGKAPNLLIYAASTLQSGVPSRFSGSGSGTEFTLTISSLQPEDFATYYCQQLNSDLYTFGQGTKLEIK
With B5, the pKD in experiment [1] is 6.35 -log10(KD); in experiment [2], 9.53 -log10(KD).

B6: Inverse folding design from the DXP-604 starting point (Table 5, design row 7, the 5th table, row 10) (antibody, V domains shown)
VH: EVQLVESGGGLIQPGGSLRLSCAASGIIVSRNYMTWVRQAPGKGLEWVSVIYSGGSTFYADSVKGRFTISRDNSKNTLYLQMSSLRAEDTAVYYCARDLGPYGMDVWGQGTTVTVSS
VL: DIQLTQSPSFLSASVGDRVTITCRASQGISSDLAWYQQKPGKAPNLLIYAASTLQSGVPSRFSGSGSGTEFTLTISSLQPEDFATYYCQQLNSDLYTFGQGTKLEIK
Take B6: the pKD in experiment [1] is 6.07 -log10(KD); in experiment [2], 10.6 -log10(KD).

B7: Inverse folding design from the DXP-604 starting point (Table 5, design row 6, the 5th table, row 9) (antibody, V domains shown)
VH: EVQLVESGGGLIQPGGSLRLSCAASGIIVSRNYMTWVRQAPGKGLEWVSVIYSGGSTFYADSVKGRFTISRDNSKNTLYLQMSSLRAEDTAVYYCARDLGPYGMDVWGQGTTVTVSS
VL: DIQLTQSPSFLSASVGDRVTITCRASQGIGSDLAWYQQKPGKAPNLLIYAASTLQSGVPSRFSGSGSGTEFTLTISSLQPEDFATYYCQQLNSDLYTFGQGTKLEIK
Take B7: the values for the pKD in experiment [1] and in experiment [2] were 6.28 -log10(KD) and 10 -log10(KD), respectively.

B8: LY-CoV1404 (antibody, V domains shown)
VH: QITLKESGPTLVKPTQTLTLTCTFSGFSLSISGVGVGWLRQPPGKALEWLALIYWDDDKRYSPSLKSRLTISKDTSKNQVVLKMTNIDPVDTATYYCAHHSISTIFDHWGQGTLVTVSS
VL: QSALTQPASVSGSPGQSITISCTATSSDVGDYNYVSWYQQHPGKAPKLMIFEVSDRPSGISNRFSGSKSGNTASLTISGLQAEDEADYYCSSYTTSSAVFGGGTKLTVL
Consider B8, for which, in experiment [3], the pKD was 9.01 -log10(KD).

B9: Inverse folding design from the LY-CoV1404 starting point (Table 5, design row 2, the 5th table, row 13) (antibody, V domains shown)
VH: QITLKESGPTLVKPTQTLTLTCTFSGFSLSISGVGVGWLRQPPGKALEWLALIYWDDDKRYSPSLKSRLTISKDTSKNQVVLKMTNIDPVDTATYYCAHHSISTIFDHWGQGTLVTVSS
VL: QSALTQPASVSGSPGQSITISCTATSSDVGIYNYVSWYQQHPGKAPKLMIFEVSDRPSGISNRFSGSKSGNTASLTISGLQAEDEADYYCSSYTTSAAVFGGGTKLTVL
Take B9: in experiment [2], the pKD is 9.48 -log10(KD).

B10: Inverse folding design from the LY-CoV1404 starting point (Table 5, design row 1, the 5th table, row 12) (antibody, V domains shown)
VH: QITLKESGPTLVKPTQTLTLTCTFSGFSLSTSGVGVGWLRQPPGKALEWLALIYWDDDKRYSPSLKSRLTISKDTSKNQVVLKMTNIDPVDTATYYCAHHSISTIFDHWGQGTLVTVSS
VL: QSALTQPASVSGSPGQSITISCTATSSDVGNYNYVSWYQQHPGKAPKLMIFEVSDRPSGISNRFSGSKSGNTASLTISGLQAEDEADYYCSSYTSSSVVFGGGTKLTVL
For the molecule B10, the pKD in experiment [2] was 9.57 -log10(KD).

B11: BD55–5840 (antibody, V domains shown)
VH: VQLAQSGSELRKPGASVKVSCDTSGHSFTSNAIHWVRQAPGQGLEWMGWINTDTGTPTYAQGFTGRFVFSLDTSARTAYLQISSLKADDTAVFYCARERDYSDYFFDYWGQGTLVTVSS
VL: EVVMTQSPASLSVSPGERATLSCRARASLGISTDLAWYQQRPGQAPRLLIYGASTRATGIPARFSGSGSGTEFTLTISSLQSEDSAVYYCQQYSNWPLTFGGGTKVEIK
Take B11: the pKD in experiment [3] was 10.1 -log10(KD).

B12: REGN10987 (antibody, V domains shown)
VH: QVQLVESGGGVVQPGRSLRLSCAASGFTFSNYAMYWVRQAPGKGLEWVAVISYDGSNKYYADSVKGRFTISRDNSKNTLYLQMNSLRTEDTAVYYCASGSDYGDYLLVYWGQGTLVTVSS
VL: QSALTQPASVSGSPGQSITISCTGTSSDVGGYNYVSWYQQHPGKAPKLMIYDVSKRPSGVSNRFSGSKSGNTASLTISGLQSEDEADYYCNSLTSISTWVFGGGTKLTVL
Regarding B12, in experiment [3], the pKD was 7.84 -log10(KD).

B13: S2K146 (antibody, V domains shown)
VH: QVQLVESGGVVVQPGGSLRLSCAASGFTFHDHTMHWVRQAPGKGLEWVSLITWNGGTIHYSDSVKGRFTISRDNSKNSLYLQMNSLRTEDTALYYCAKDLGRGGWYLPSDAWGQGTLVTVSS
VL: not shown
Regarding B13, the pKD in experiment [3] was 10.3 -log10(KD).
